# Data as given in PMC6947424, “New Targeted Gold Nanorods for the Treatment of Glioblastoma by Photodynamic Therapy” (Journal of Clinical Medicine, 2019).
# “And” between values parts separate entries of the source, which are not always exact repeats. Identical values can stand only once. Residues, ends and D or L forms follow the SMILES beside them. *: point of attachment. Pyropheophorbide(a) = C=Cc1c(C)c2cc3nc(c4c5[nH]c(cc6nc(cc1[nH]2)C(C)=C6CC)c(C)c5C(=O)C4)[C@@H](CCC(=O)*)[C@@H]3C; Hexanoyl(6-maleimido) = O=C1C=CC(=O)N1CCCCCC(=O)*
# Columns and labels:
# UV-vis absorption = format: physicochemical; details: ethanol, Soret band
# Experimental: (§1) The setup and the protocol to evaluate the photophysical characterizations including the absorption, fluorescence, and singlet oxygen emission spectra in addition to the fluorescence and singlet oxygen lifetimes have been previously described by our team. The absorption spectra were recorded on a UV-3600 UV–vis double beam spectrophotometer (Shimadzu, Marne La Vallée, France) in the wavelength range of 200-800 nm. The measurements were performed on the molecules dispersed in ethanol in quartz cuvettes with an optical path of 10 mm. The fluorescence spectra were recorded on a Horiba Jobin Yvon Fluorolog-3 (FL3-222) spectrofluorimeter equipped with a 450W xenon lamp, a thermostated cell compartment (25 °C), a R928 (Hamamatsu, Massy, France) UV–vis photomultiplier and a liquid nitrogen cooled InGaAs infrared detector (DSS-16A020L Electro-Optical System Inc., Phoenixville, PA, USA). The excitation spectrometer used is a SPEX double grating monochromator (1200 grooves per mm blazed at 330 nm). The fluorescence was measured using the UV–vis detector through a SPEX double grating monochromator (600 grooves per mm blazed at 500 nm). The singlet oxygen production was measured using the IR detector through a SPEX double grating monochromator (600 grooves per mm blazed at 1 μm).
# The photophysical properties at the different synthetic stages of the hybrid AuNRs@PEG-MI-K(Pyro)DKPPR-OH, including the peptide derivatives as intermediates, were studied and compared to that of free Pyro. These properties include the UV-vis absorption, the florescence emission (quantum yield (Φf) and lifetime (τf)) and the ^1O2 production (quantum yield (ΦΔ) and lifetime (τΔ)). To determine these properties, the optical density (OD) of the Soret band of the Pyro component (412 nm) was adjusted at about 0.2. Controls, such as TPP dissolved in toluene, as a standard for fluorescence emission, and RB dissolved in ethanol, as a standard for ^1O2 production, were used. Ethanol was chosen to dissolve the studied molecules since it is a convenient solvent for the detection of fluorescence and ^1O2 emission. […]
# [1] = Singlet oxygen production (quantum yield and lifetime); format: physicochemical; details: ethanol; for ΦΔ (singlet oxygen quantum yield): excitation 412 nm, detection 1270 nm, Rose Bengal as reference
# Experimental: as §1
# Fluorescence quantum yields (Φf) were determined using a tetraphenyl porphyrin (TPP) solution as the fluorescence standard (Φf = 0.11 in toluene, taking into account solvent refractive index and absorption efficiencies. For the direct determination of ^1O2 quantum yield (ΦΔ), excitation was performed with a Xe-arc, the light was separated in a SPEX 1680, 0.22 µm double monochromator. Detection at 1270 nm was carried out through a PTI S/N 1565 monochromator and the emission was monitored by a liquid nitrogen cooled Ge-detector (EO-817L, North Coast Scientific Co, OH, USA). Rose Bengal (RB) was chosen as a reference solution because of its high ^1O2 quantum yield in EtOH (ΦΔ = 0.68). The absorbance value at the excitation wavelengths (412 nm) of both the reference and the sample solutions were set to approximately 0.2 by dilution. The samples were all prepared in ethanol.
# The quantum yield of singlet oxygen production is determined by the equation (2):(2) ΦΔ=ΦΔ0×I/I0×[…] where ΦΔ and ΦΔ0, I and I0, DO and DO0 are the luminescence quantum yields of singlet oxygen, the luminescence intensities and the optical densities of the sample and reference, respectively.
# Fluorescence lifetimes were measured by Time-Correlated Single Photon Counting (TCSPC) using for excitation a pulsed laser diode LDH-P-C-405 coupled with a PDL 800-D driver (both from PicoQuant GmbH, Berlin, Germany) emitting at 408 nm (FWHM < 70 ps, 1 MHz) and an SPCM-AQR-15 avalanche photodiode (EG & G, Vaudreuil, Canada) coupled with a 650 nm (±10 nm) interference long-wave pass filter as the detection system. The acquisition system was a PicoHarp 300 module with a PHR-800 four-channel router (both from PicoQuant GmbH, Berlin, Germany). Fluorescence decays were recorded using the single photon counting method (four optical faced quartz cells for pure products in ethanol). Data were collected, and up to 1000 counts were accumulated in the maximum channel and analyzed using Fluofit TCSPC software (PicoQuant GmbH, Berlin, Germany) based on iterative reconvolution using a Levensberg-Marquandt algorithm. Singlet oxygen lifetime measurements have been performed on a TEMPRO-01 spectrophotometer (Horiba Jobin Yvon, Palaiseau, France). The apparatus was composed of a pulsed diode excitation source SpectraLED-415 emitting at 415 nm, a cuvette compartment, a Seya–Namioka type emission monochromator (600–2000 nm), and an H10330-45 near-infrared photomultiplier tube with a thermoelectric cooler (Hamamatsu, Massy, France) as the detection system. The system was monitored by a single photon counting controller FluoroHub-B and the software DataStation and DAS6 (Horiba Jobin Yvon, Palaiseau, France). […]
SMILES,λmax (UV-vis absorption) [nm],τΔ (singlet oxygen lifetime) [1] [μs],ΦΔ (singlet oxygen quantum yield) [1]
C=Cc1c(C)c2cc3nc(c4c5[nH]c(cc6nc(cc1[nH]2)C(C)=C6CC)c(C)c5C(=O)C4)[C@@H](CCC(=O)NCCCC[C@H](NC(=O)CCCCCN1C(=O)C=CC1=O)C(=O)N[C@@H](CC(=O)O)C(=O)N[C@@H](CCCCN)C(=O)N1CCC[C@H]1C(=O)N1CCC[C@H]1C(=O)N[C@@H](CCCNC(=N)N)C(=O)O)[C@@H]3C [MI-K(Pyro)DKPPR-OH] ({Hexanoyl(6-maleimido)}-K(Pyropheophorbide(a))DKPPR-OH),412,13,0.39
"C=Cc1c(C)c2cc3nc(c4c5[nH]c(cc6nc(cc1[nH]2)C(C)=C6CC)c(C)c5C(=O)C4)[C@@H](CCC(=O)O)[C@@H]3C [Pyro, pyropheophorbide-a, reference compound]",412,14,0.5 and 0.51
